Test results reported in paper PMC5617326 (ACS Catalysis, 2017).

B1: 1,8-cineole synthase from Streptomyces clavuligerus (enzyme, Streptomyces clavuligerus ATCC 27064, UniProt B5GMG2 1-330, looked up)
chain: MPAGHEEFDIPFPSRVNPFHARAEDRHVAWMRAMGLITGDAAEATYRRWSPAKVGARWFYLAQGEDLDLGCDIFGWFFAYDDHFDGPTGTDPRQTAAFVNRTVAMLDPRADPTGEHPLNIAFHDLWQRESAPMSPLWQRRAVDHWTQYLTAHITEATNRTRHTSPTIADYLELRHRTGFMPPLLDLIERVWRAEIPAPVYTTPEVQTLLHTTNQNINIVNDVLSLEKEEAHGDPHNLVLVIQHERQSTRQQALATARRMIDEWTDTFIRTEPRLPALCGRLGIPLADRTSLYTAVEGMRAAIRGNYDWCAETNRYAVHRPTGTGRATTPW
B2: linalool synthase from Streptomyces clavuligerus (enzyme, Streptomyces clavuligerus ATCC 27064, UniProt D5SL78 1-329, looked up)
chain: MQEFEFAVPAPSRVSPDLARARARHLDWVHAMDLVRGEEARRRYEFSCVADIGAYGYPHATGADLDLCVDVLGWTFLFDDQFDAGDGRERDALAVCAELTDLLWKGTAATAASPPIVVAFSDCWERMRAGMSDAWRRRTVHEWVDYLAGWPTKLADRAHGAVLDPAAHLRARHRTICCRPLFALAERVGGYEVPRRAWHSSRLDGMRFTTSDAVIGMNELHSFEKDRAQGHANLVLSLVHHGGLTGPEAVTRVCDLVQGSIESFLRLRSGLPELGRALGVEGAVLDRYADALSAFCRGYHDWGRGASRYTTRDHPGDLGLENLVARSSG

How the values were obtained:
[1] = molecular target: the molecule itself; test: crystal structure; bCinS co-crystallised with 2 mM FNPP (Morpheus II A4, pH 6.5), also soaked with 2 mM FGPP; space group P1, two molecules in the asymmetric unit; interface analysed with PISA
[2] = molecular target: the molecule itself; test: crystal structure; bLinS apo (25% w/v PEG3350) and co-crystallised with 2 mM FGPP (Morpheus D7, pH 7.5); space group I4, two molecules in the asymmetric unit

Row | Protein | stoichiometry N [1] | binding result [2]
1 | B1 | 2 | 
2 | B2 |  | binds
